# Patent publication US6060588, “Bap-1 proteins” (COR Therapeutics, Inc., dated 2000)
# Target: GAL4 DNA binding protein only (pGBT9) (Saccharomyces cerevisiae (strain ATCC …, UniProt P04386))
# Test: yeast two-hybrid, mating with control baits
binder,measurement,value
"clone 126-2 (partial cDNA of the mouse homologue of Bap-1, fused to the VP16 activation domain) (other) SGAEDNGDSSHCSNASTHSNQEAGPSNKRTKTSDDSGLDLDNNNAGVAIDPVMDGASEIELVFRPHPTLMEKDDSAQTRYIKTSGNATVDHLSKYLAVRLALEELRSKV",binding result,no binding
